Data taken from paper PMC5827659.
Each block holds one substance with its values, some of them ahead of it.

Assays:
Test in all cases: FRET (FIRE system)
[1] = target: FIRE construct Y-TMG-/C-TMG-CC1 R304K, Q13586-1; settings: HEK 293 cells; n=52; parent: est. 0.084; read off a plot
[2] = target: FIRE construct Y-TMG-/C-TMG-CC1α1α2 L251S R304W, Q13586-1; settings: HEK 293 cells; n=9; parent: est. 0.077; read off a plot
[3] = target: FIRE construct Y-TMG-/C-TMG-CC1α1α2 R304K, Q13586-1; settings: HEK 293 cells; n=18; parent: est. 0.077; read off a plot
[4] = target: FIRE construct Y-TMG-/C-TMG-CC1 L251S R304W, Q13586-1; settings: HEK 293 cells; n=39; parent: est. 0.084; read off a plot
Sequence of FIRE construct Y-TMG-/C-TMG-CC1 L251S R304W, Q13586-1 (Q13586 whole entry L251S/R304W, looked up): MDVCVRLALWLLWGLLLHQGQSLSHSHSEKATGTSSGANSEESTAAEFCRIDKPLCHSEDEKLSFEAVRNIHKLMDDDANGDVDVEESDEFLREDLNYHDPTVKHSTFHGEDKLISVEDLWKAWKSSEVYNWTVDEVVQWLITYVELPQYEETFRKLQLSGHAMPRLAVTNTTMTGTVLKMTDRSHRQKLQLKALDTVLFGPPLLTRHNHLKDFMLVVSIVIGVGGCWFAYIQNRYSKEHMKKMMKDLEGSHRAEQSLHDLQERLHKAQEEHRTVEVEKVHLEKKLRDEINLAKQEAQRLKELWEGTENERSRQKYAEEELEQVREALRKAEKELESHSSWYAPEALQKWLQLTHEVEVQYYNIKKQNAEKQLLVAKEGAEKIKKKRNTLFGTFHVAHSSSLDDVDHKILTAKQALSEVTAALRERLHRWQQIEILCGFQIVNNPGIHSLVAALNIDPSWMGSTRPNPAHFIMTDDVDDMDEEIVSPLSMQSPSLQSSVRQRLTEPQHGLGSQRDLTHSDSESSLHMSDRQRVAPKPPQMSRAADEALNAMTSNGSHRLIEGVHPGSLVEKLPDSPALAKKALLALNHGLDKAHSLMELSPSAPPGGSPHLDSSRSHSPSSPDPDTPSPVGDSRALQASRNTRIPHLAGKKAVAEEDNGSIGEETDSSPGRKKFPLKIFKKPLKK

Sequence of FIRE construct Y-TMG-/C-TMG-CC1α1α2 L251S R304W, Q13586-1 (Q13586 whole entry L251S/R304W, looked up): as above
Sequence of FIRE construct Y-TMG-/C-TMG-CC1 R304K, Q13586-1 (Q13586 whole entry R304K, looked up): as the sequence (Q13586 whole entry L251S/R304W, looked up) above, with S251L, W304K counted along it
Sequence of FIRE construct Y-TMG-/C-TMG-CC1α1α2 R304K, Q13586-1 (Q13586 whole entry R304K, looked up): as the sequence (Q13586 whole entry L251S/R304W, looked up) above, with S251L, W304K counted along it

Substance: FIRE construct Y-TMG-/C-TMG-CC1 (STIM1 CC1 233–343) wild type (from UniProt Q13586-1) R304K
- response [1]: 0.074 Eapp

- response [2]: 0.091 Eapp
Substance: FIRE construct Y-TMG-/C-TMG-CC1α1α2 (STIM1 233–309) wild type (from UniProt Q13586-1) L251S; R304W

- response [3]: 0.06 Eapp
Substance: FIRE construct Y-TMG-/C-TMG-CC1α1α2 (STIM1 233–309) wild type (from UniProt Q13586-1) R304K

Substance: FIRE construct Y-TMG-/C-TMG-CC1 (STIM1 CC1 233–343) wild type (from UniProt Q13586-1) L251S; R304W
- response [4]: 0.096 Eapp
